Consider ten molecules from patent US20200024337A1 (H LUNDBECK A S, published 2020).

In assay [1] the target is T1, alpha-synuclein (human, UniProt P37840 1-140). Put plainly: SPR (Biacore 3000), IgG captured by anti-human IgG on CM5 chip, synuclein as analyte. For orientation: Surface plasmon resonance follows binding to a sensor surface in real time, without labels.
Assay [2] has as its target T1, alpha-synuclein. The description is as above. The source holds these as a separate data set.
Assay [3] has as its target T1, alpha-synuclein. Description: SPR (Biacore 3000), synuclein ligand format.
The target of assay [4] is T2, ….
T2 construct: x-axis label of the 4th bar, upper panel; also called alpha-synuclein 20-mer 121-140
Put plainly: Pepscan ELISA on a synthesized peptide array (peroxidase conjugate, ABTS, CCD read-out, scale 0 to 3000) [upper panel]. (In general: ELISA stands for enzyme-linked immunosorbent assay.)
Description: (§1) The binding of antibody to each of the synthesized 20 mer peptides was tested in a Pepscan based ELISA. The linear peptide array covering the entire coding sequence of alpha-synuclein, as well as all peptides with oxidized methionines or nitrosylated tyrosines, were incubated with primary antibody solution (overnight at 4° C.). After washing, the peptide arrays were incubated with a 1/1000 dilution of an antibody peroxidase conjugate (SBA,cat.nr.2010-05) for one hour at 25° C. After washing, the peroxidase substrate 2,2′-azino-di-3-ethylbenzthiazoline sulfonate (ABTS) and 2 μl/ml of 3 percent H₂O₂ were added. After one hour, the color development was measured. The color development was quantified with a charge coupled device (CCD)—camera and an image processing system. […] The results were quantified and stored into the Peplab database. Occasionally a well contains an air-bubble resulting in a false-positive value, the cards are manually inspected and any values caused by an air-bubble are scored as 0.

Assay [5] has as its target T3, ….
T3 construct: x-axis label of the 3rd bar, upper panel
The assay is described as above.
Description: as §1

In assay [6] the target is T4, ….
T4 construct: x-axis label of the 2nd bar, upper panel
The assay is described as above.
Description: as §1

Numbering of substitutions follows the chain as printed. Like-named read-outs stand apart in the source and are kept apart here.

B1: 2E6-HLD-1 (antibody, V domains shown)
VH: QVQLVQSGAEVKKPGASVKVSCKASGYTFTSYWMHWMRQAPGQGLEWIGRIDPNSGTTKYNVNFKTRATLTVDKSTSTAYMELSSLRSEDTAVYYCARLGHYGNLYAMDYWGQGTLVT
VL: EIVLTQSPATLSLSPGERATLSCSASSSVSYMHWYQQKPGQAPRRWIYDTSKLASGVPARFSGSGSGTDYTLTISSLEPEDFAVYYCQQWSSNPPTFGQGTKLEIKR
notes: Humanized 2E6; also called h2E6-HLD-1; H2E6-HLD-1
Regarding B1, the figures for the KD improvement in the assay with alpha-synuclein [1], in the assay with alpha-synuclein [2] and with alpha-synuclein [3] were 2.5 fold (Ch2E6 = 1), 2.5 fold (Ch2E6 = 1) and 2 fold (Ch2E6 = 1), respectively.

B2: 7A10 (antibody, V domains shown)
VH: B1 VH with M108K
VL: EIVLTQSPATLSLSPGERATLSCSASSSVSYIHWYQQKPGQAPRRWIYDTSKLASGVPARFSGSGSGTDYTLTISSLEPEDFAVYYCQQWSSNPPTFGQGTKLEIK
notes: also called 2E6_7A10; 2E6-HLD1-7A10
The term Kd denotes the constant that tells how readily two partners part at equilibrium. Low values mean a tighter complex, high ones a looser complex. The koff is a measure of how fast the partners let go of each other. By kon is commonly meant the second-order rate constant of association. High values mean fast association, low ones slow association. Regarding B2, in the assay with alpha-synuclein [1], the KD improvement was 10.3 fold (Ch2E6 = 1), the Ka came to 1.81e+08 M⁻¹, binding was put at a Kd of 5.52 nM and the off-rate constant (koff) is 0.000285 s⁻¹. In the assay with alpha-synuclein [1], the kon is 51700 M⁻¹ s⁻¹.

B3: 8D9 (antibody, V domains shown)
VH: B1 VH with M108K
VL: B2 VL
B3: the KD improvement in the assay with alpha-synuclein [1] is 8.7 fold (Ch2E6 = 1).

B4: 2E6-HLD-2 (antibody, V domains shown)
VH: B1 VH with M37V
VL: B1 VL
notes: Humanized 2E6; also called h2E6-HLD-2; H2E6-HLD-2
B4: in the assay with alpha-synuclein [3], the KD improvement is 1 fold (Ch2E6 = 1).

B5: 2E6-HLD-3 (antibody, V domains shown)
VH: B1 VH with A68V
VL: B1 VL
notes: Humanized 2E6; also called h2E6-HLD-3; H2E6-HLD-3
As for B5, in the assay with alpha-synuclein [3], the KD improvement is 1 fold (Ch2E6 = 1) and the equilibrium dissociation constant (Kd) was 5.32 nM.

B6: 7C4 (antibody, V domains shown)
VH: B1 VH with S31R, L45P
VL: B2 VL with Y31F, I32M
For B6, the KD improvement with alpha-synuclein [1] is 7 fold (Ch2E6 = 1).

B7: HDL1-3 (antibody, V domains shown)
VH: B1 VH with F64I
VL: B2 VL
notes: also called combination 3: 7A10 light chain+9C12 heavy chain
For the molecule B7, in the assay with alpha-synuclein [2], the KD improvement is 45 fold (Ch2E6 = 1), the Ka was determined as 7.94e+08 M⁻¹, binding was characterised by a dissociation constant (Kd) of 1.26 nM and the koff was 0.000126 s⁻¹. This molecule also yielded an association rate constant (kon) with alpha-synuclein [2] of 99900 M⁻¹ s⁻¹.

B8: 9C12 (antibody, V domains shown)
VH: B1 VH with F64I
VL: B2 VL with I32M, W46L
As to B8, the KD improvement with alpha-synuclein [1] is 10 fold (Ch2E6 = 1).

B9: mouse 2E6 (antibody, V domains shown)
VH: QVQLQQPGAELVKPGASVKLSCTASGYTFTSYWMHWMKQRPGRGLEWIGRIDPNSGTTKYNVNFKTKATLTVDKPSSTAYMHLSSLTSEDSAVYYCARLGHYGNLYAMDYWGQGTSVT
VL: QIVLTQSPAIMSASPGEKVTMTCSASSSVSYMHWYQQKSGTSPKRWIYDTSKLASGVPTRFSGSGSGTSYSLTISSMDTEDAATYYCQQWSSNPPTFGAGTKLELK
notes: also called m2E6
As to B9, the binding result in assay [4], in assay [5] and in assay [6] was “binds” throughout.

B10: chimeric 2E6 (antibody, V domains shown)
VH: B9 VH
VL: B9 VL
notes: also called ch2E6; Ch2E6
Turning to B10, the KD improvement in the assay with alpha-synuclein [1], in the assay with alpha-synuclein [2] and in the assay with alpha-synuclein [3] was 1 fold (Ch2E6 = 1) throughout.
